In patent publication US20210292396A1:
Where “and” joins values, the source holds several entries; their conditions need not be identical. Identical values can stand only once.

Columns and labels:
Experiment in all cases: cell-based or functional assay
[1] = target: Env of HIV isolate BJOX028000.10.3 (clade AE) (HIV)
[2] = target: HIV Env of isolate DU422.01 (HIV)
[3] = target: Env of HIV isolate UG021.16 (clade D) (HIV)
[4] = target: Env of HIV isolate WITO.33 (clade B) (HIV)
[5] = target: Env of HIV isolate QH0692.42 (clade B) (HIV)
[6] = target: Env of HIV isolate BB539.2B13 (clade A) (HIV)
[7] = target: HIV Env of isolate 16845-2.22 (HIV)
[8] = target: Env of HIV isolate BR025.9 (clade C) (HIV)
[9] = target: HIV Env of isolate 3326.v4.c3 (HIV)
[10] = target: Env of HIV isolate 6838.v1.c35 (clade C) (HIV)
[11] = target: Env of HIV isolate BL01.DG (clade B) (HIV)
[12] = target: HIV Env of isolate 3103.v3.c10 (HIV)
[13] = target: HIV Env of isolate 1394C9G1(Rev-) (HIV)
[14] = target: HIV Env of isolate T250-4 (HIV)
[15] = target: HIV Env of isolate 6535.3 (HIV)
[16] = target: HIV Env of isolate ZM135M.PL10a (HIV)
[17] = target: HIV Env of isolate Q23.17 (HIV)
[18] = target: HIV Env of isolate CNE17 (HIV)
[19] = target: HIV Env of isolate CAAN5342.A2 (HIV)
[20] = target: HIV Env of isolate PVO.4 (HIV)
[21] = target: HIV Env of isolate 249M_B10 (HIV)
[22] = target: HIV Env of isolate ZM109F.PB4 (HIV)
[23] = target: HIV Env of isolate CAP210.2.00.E8 (HIV)
[24] = target: HIV Env of isolate 1006_11_C3_1601 (HIV)
[25] = target: HIV Env of isolate ZM53M.PB12 (HIV)
[26] = target: HIV Env of isolate RHPA4259.7 (HIV)
[27] = target: HIV Env of isolate 6244_13_B5_4576 (HIV)
[28] = target: HIV Env of isolate 246F_C1G (HIV)
[29] = target: HIV Env of isolate 0330.v4.c3 (HIV)
[30] = target: HIV Env of isolate CNE52 (HIV)
[31] = target: HIV Env of isolate X1193_c1 (HIV)
[32] = target: HIV Env of isolate WEAU_d15_410_5017 (HIV)
[33] = target: HIV Env of isolate Du172.17 (HIV)
[34] = target: HIV Env of isolate CNE5 (HIV)
[35] = target: HIV Env of isolate T211-9 (HIV)
[36] = target: HIV Env of isolate HIV-0013095-2.11 (HIV)
[37] = target: HIV Env of isolate 235-47 (HIV)
[38] = target: HIV Env of isolate 263-8 (HIV)
[39] = target: HIV Env of isolate Ce704809221_1B3 (HIV)
[40] = target: HIV Env of isolate Ce2060_G9 (HIV)
[41] = target: HIV Env of isolate 6811.v7.c18 (HIV)
[42] = target: HIV Env of isolate AC10.0.29 (HIV)
[43] = target: HIV Env of the 113-member cross-clade virus panel (Table 6)
[44] = target: HIV Env of isolate SC05_8C11_2344 (HIV)
[45] = target: HIV Env of isolate 3301.v1.c24 (HIV)
[46] = target: HIV Env of isolate P1981_C5_3 (HIV)
[47] = target: HIV Env of isolate 1056_10_TA11_1826 (HIV)
[48] = target: HIV Env of isolate 1012_11_TC21_3257 (HIV)
[49] = target: HIV Env of isolate BJOX009000.02.4 (HIV)
[50] = target: HIV Env of isolate Ce1172_H1 (HIV)
[51] = target: HIV Env of isolate CAP45.2.00.G3 (HIV)
[52] = target: HIV Env of isolate X2088_c9 (HIV)

B1: ePGT121.18 (ePGT121.18.H1 VH and ePGT121.17.L1 VL) (antibody, V domains shown)
VH: QMQLQESGPGLVKPGETLSLTCSVSGASISSSYWSWLRETPGKGLEWIGYTHHSGDTNYAPSLKSRVHLGLHPSKNQVSLSLTSVTAADTAVYYCARTLHGRRIYGVVAFNEYYTYFYWPTWGKGTQVTVSS
VL: SDISVAPGETVRITCGGESIGSRAVQWYQHRPGQAPRLIIYNNQDRPPGIPERFSGSPDIDFGTTATLTISNVEAGDEATYYCHIWDSRRPTNWELGPGTTLTVL
[1]
  IC50, pseudovirus neutralization: 0.054 µg/mL
[2]
  IC80, pseudovirus neutralization (M1): 0.013 µg/mL
  IC80, pseudovirus neutralization (M2): 0.013 µg/mL
[3]
  IC50, pseudovirus neutralization: 6 ng/mL
[4]
  IC50, pseudovirus neutralization: 4 ng/mL
[5]
  IC50, pseudovirus neutralization: 0.006 µg/mL
[6]
  IC50, pseudovirus neutralization: > 50 µg/mL
[7]
  IC80, pseudovirus neutralization (M1): 0.127 µg/mL
  IC80, pseudovirus neutralization (M2): 0.105 µg/mL
[8]
  IC50, pseudovirus neutralization: 1 ng/mL
[9]
  IC80, pseudovirus neutralization (M1): 2.15 µg/mL
  IC80, pseudovirus neutralization (M2): 6.86 µg/mL
[10]
  IC50, pseudovirus neutralization: 0.386 µg/mL
[11]
  IC50, pseudovirus neutralization: 6.91 µg/mL

B2: ePGT121.18.17 (ePGT121.18.H17 VH and ePGT121.17.L1 VL) (antibody, V domains shown)
VH: QMQLQESGPGLVKPGETLSLTCSVSGASISSSYWSWLRETPGKGLEWIGYTHHSGDTNYAPSLKSRVTIGLDPSKNQVSLSLTSVTAADTAVYYCARTLHGRRIYGVVAFNEYYTYFYWPTWGKGTQVTVSS
VL: SDISVAPGETVRITCGGESIGSRAVQWYQHRPGQAPRLIIYNNQDRPPGIPERFSGSPDIDFGTTATLTISNVEAGDEATYYCHIWDSRRPTNWELGPGTTLTVL
[1]
  IC50, pseudovirus neutralization: 0.338 µg/mL
[2]
  IC80, pseudovirus neutralization: 0.036 µg/mL
[3]
  IC50, pseudovirus neutralization: 13 ng/mL
[4]
  IC50, pseudovirus neutralization: 15 ng/mL
[5]
  IC50, pseudovirus neutralization: 0.035 µg/mL
[6]
  IC50, pseudovirus neutralization: > 50 µg/mL
[7]
  IC80, pseudovirus neutralization: 0.629 µg/mL
[8]
  IC50, pseudovirus neutralization: 3 ng/mL
[9]
  IC80, pseudovirus neutralization: 32 µg/mL
[10]
  IC50, pseudovirus neutralization: 0.576 µg/mL
[11]
  IC50, pseudovirus neutralization: 1.51 µg/mL

B3: ePGT121.15.H2.L1 (antibody, V domains shown)
VH: QMQLQESGPGLVKPGETLSLTCSVSGASISSSYWSWLRETPGKGLEWIGYTHHSGDTNYAPSLKSRVHLGLHPSKNQVSLSLTSVTAADTAVYYCARTLHGRRIYGVVAFNEWFTYFYWEVWGKGTQVTVSS
VL: SDISVAPGETVRISCGGESIGSRAVQWYQHRAGQAPKLIIYNNQDRPPGIPERFSGSPDIDFGTTATLTITNVEAGDEATYYCHIWDSRRPTNWVFGGGTTLTVL
[12]
  neutralization (Table 6 value): 0.00436
[13]
  neutralization (Table 6 value): 0.00203
[14]
  neutralization (Table 6 value): 0.00084
[15]
  neutralization (Table 6 value): 0.00104
[16]
  neutralization (Table 6 value): 0.122
[17]
  neutralization (Table 6 value): 0.00106
[18]
  neutralization (Table 6 value): 0.00577
[19]
  neutralization (Table 6 value): 0.00112
[20]
  neutralization (Table 6 value): 0.00346
[21]
  neutralization (Table 6 value): 0.00271
[22]
  neutralization (Table 6 value): 0.873
[23]
  neutralization (Table 6 value): 0.0207
[24]
  neutralization (Table 6 value): 0.00175
[25]
  neutralization (Table 6 value): 0.00177
[26]
  neutralization (Table 6 value): 0.00156
[27]
  neutralization (Table 6 value): 0.00689
[28]
  neutralization (Table 6 value): 0.0024
[29]
  neutralization (Table 6 value): 0.0053
[30]
  neutralization (Table 6 value): 0.0469
[31]
  neutralization (Table 6 value): 0.000174
[32]
  neutralization (Table 6 value): 0.00168
[33]
  neutralization (Table 6 value): 0.000836
[34]
  neutralization (Table 6 value): 0.743
[35]
  neutralization (Table 6 value): 0.00508
[36]
  neutralization (Table 6 value): 0.698
[37]
  neutralization (Table 6 value): 0.00466
[38]
  neutralization (Table 6 value): 0.00351 and 0.00488
[39]
  neutralization (Table 6 value): 0.00143
[40]
  neutralization (Table 6 value): 0.0132
[41]
  neutralization (Table 6 value): 0.00194
[42]
  neutralization (Table 6 value): 0.00196
[43]
  Breadth: 77%
  GeoMean: 0.004
[44]
  neutralization (Table 6 value): 0.00664
[45]
  neutralization (Table 6 value): 0.00106
[46]
  neutralization (Table 6 value): 0.000449
[47]
  neutralization (Table 6 value): 0.000864
[48]
  neutralization (Table 6 value): 0.00172
[49]
  neutralization (Table 6 value): 0.0259
[50]
  neutralization (Table 6 value): 0.000582
[51]
  neutralization (Table 6 value): 9e-06
[52]
  neutralization (Table 6 value): 0.000985

B4: ePGT121.15 (ePGT121.15.H6 VH and ePGT121.15.L1 VL) (antibody, V domains shown)
VH: QMQLQESGPGLVKPGETLSLTCSVSGASISSSYWSWLRETPGKGLEWIGYTHHSGDTNYAPSLKSRVHLGLHPSKNQVSLSLTSVTAADTAVYYCARTLHGRRIYGVVAFNEFFTYFYWEVWGKGTQVTVSS
VL: SDISVAPGETVRISCGGESIGSRAVQWYQHRAGQAPKLIIYNNQDRPPGIPERFSGSPDIDFGTTATLTITNVEAGDEATYYCHIWDSRRPTNWVFGGGTTLTVL
[1]
  IC50, pseudovirus neutralization: 0.363 µg/mL
[2]
  IC80, pseudovirus neutralization: 0.022 µg/mL
[3]
  IC50, pseudovirus neutralization: 6 ng/mL
[4]
  IC50, pseudovirus neutralization: 8 ng/mL
[5]
  IC50, pseudovirus neutralization: 0.015 µg/mL
[6]
  IC50, pseudovirus neutralization: > 50 µg/mL
[7]
  IC80, pseudovirus neutralization: 0.264 µg/mL
[8]
  IC50, pseudovirus neutralization: 2 ng/mL
[9]
  IC80, pseudovirus neutralization: 5.05 µg/mL
[10]
  IC50, pseudovirus neutralization: 0.234 µg/mL
[11]
  IC50, pseudovirus neutralization: 13.1 µg/mL
